According to patent US20250283886A1:
Several values for one entry are separate records, joined by “and”; a condition that tells them apart may be missing. Identical values can stand only once. Like-named read-outs stand apart in the source and are kept apart here.

Tests used:
[1] = molecular target: polypeptides with a terminal leucine residue
[2] = molecular target: polypeptides with a terminal leucine residue; remark: listed apart in the source
[3] = molecular target: polypeptides with a terminal leucine residue; test: single-molecule dwell time analysis
[4] = molecular target: … peptide containing N-terminal phenylalanine; test: single-molecule recognition of immobilized peptide, 500 nM of each binder
[5] = molecular target: … peptide containing N-terminal phenylalanine; test: table of pulse statistics of the single-molecule recognition experiment
[6] = molecular target: polypeptides with a terminal leucine residue; test: single-molecule dwell time analysis, distribution of mean pulse durations, panel Leu; filtered 0.00s≤dur≤20.00s and magnitude above baseline > 15.0
[7] = molecular target: peptide having an N-terminal phenylalanine residue; test: single-molecule dwell time analysis, distribution of mean pulse durations, panel Phe; filtered 0.00s≤dur≤20.00s and magnitude above baseline > 15.0
[8] = molecular target: peptide having an N-terminal tryptophan residue; test: single-molecule dwell time analysis, distribution of mean pulse durations, panel Trp; filtered 0.00s≤dur≤20.00s and magnitude above baseline > 15.0
[9] = molecular target: peptide having an N-terminal tyrosine residue; test: single-molecule dwell time analysis, distribution of mean pulse durations, panel Tyr; filtered 0.00s≤dur≤20.00s and magnitude above baseline > 15.0

B1: ClpS from Thermosynochoccus elongatus (teClpS), labeled (protein)
chain: MPQERQQVTRKHYPNYKVIVLNDDFNTFQHVAACLMKYIPNMTSDRAWELTNQVHYEGQAIVWVGPQEQAELYHEQLLRAGLTMAPLEPE
In the case of B1, the pulse duration M [1] is reported as 0.43 s and 0.5 s, the pulse duration µ [1] is reported as 0.68 s and 0.65 s and the pulse duration M [2] is reported as 0.46 s and 0.63 s. For the same binder, the pulse duration Mo [2] was 0.5 s, the pulse duration µ [2] was 0.74 s and 0.82 s and the mean pulse duration [3] was 0.71 s.

B2: at ClpS1 (Agrobacterium tumifaciens ClpS1) labeled with Cy3, Q8UFN4 1-117 (protein)
chain: MIAEPICMQGEGDGEDGGTNRGTSVITRVKPKTKRPNLYRVLLLNDDYTPMEFVIHILERFFQKDREAATRIMLHVHQHGVGECGVFTYEVAETKVSQVMDFARQHQHPLQCVMEKK
B2 gave a mean pulse duration [4] of 1.3 s, a pulse rate [4] of 8.1 pulses/min and a N pulses [5] of 98. The median pulse width [5] was 0.63 s.

B3: A. tumefaciens ClpS1 (protein)
chain: B2 chain
Binder B3 has a mean pulse duration (value at the dashed line) [6] of 0.31 s, a mean pulse duration (value at the dashed line) [7] of 0.59 s and a mean pulse duration (value at the dashed line) [8] of 0.34 s. The mean pulse duration (value at the dashed line) [9] was 0.69 s.
